Experimental findings from IntAct's records for PubMed 14532330 are described below.

The labels stand for the following.
B1: Protein phosphatase 1 regulatory subunit 3C (Homo sapiens), Q9UQK1 (parent)
chain: MSCTRMIQVLDPRPLTSSVMPVDVAMRLCLAHSPPVKSFLGPYDEFQRRHFVNKLKPLKSCLNIKHKAKSQNDWKCSHNQAKKRVVFADSKGLSLTAIHVFSDLPEEPAWDLQFDLLDLNDISSALKHHEEKNLILDFPQPSTDYLSFRSHFQKNFVCLENCSLQERTVTGTVKVKNVSFEKKVQIRITFDSWKNYTDVDCVYMKNVYGGTDSDTFSFAIDLPPVIPTEQKIEFCISYHANGQVFWDNNDGQNYRIVHVQWKPDGVQTQMAPQDCAFHQTSPKTELESTIFGSPRLASGLFPEWQSWGRMENLASYR
partner: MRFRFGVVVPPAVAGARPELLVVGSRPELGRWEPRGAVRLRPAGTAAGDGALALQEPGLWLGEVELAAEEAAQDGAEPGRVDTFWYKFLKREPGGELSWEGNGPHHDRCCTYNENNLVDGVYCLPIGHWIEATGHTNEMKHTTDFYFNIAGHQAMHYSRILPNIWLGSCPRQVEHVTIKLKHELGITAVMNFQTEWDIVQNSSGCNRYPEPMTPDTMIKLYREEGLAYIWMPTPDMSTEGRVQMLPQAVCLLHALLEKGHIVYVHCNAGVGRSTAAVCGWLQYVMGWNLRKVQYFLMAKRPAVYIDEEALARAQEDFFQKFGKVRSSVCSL
B2: Laforin (Homo sapiens), O95278 (parent)
chain: B1 partner
partner: B1 chain

The first assay covers variants of B1. To be noted: with epm2a_human EPM2A.
For the variant MSCTRMIQVLDPRPLTSSVMPVDVAMRLCLAHSPPVKSFLGPYDEFQRRHFVNKLKPLKSCLNIKHKAKSQNDWKCSHNQAKKRVVFADSKGLSLTAIHVFSDLPEEPAWDLQFDLLDLNDISSALKHHEEKNLILDFPQPSTDYLSFRSHFQKNFVCLENCSLQERTVTGTVKVKNVSFEKKVQIRITFDSWKNYTDVDCVYMKNVYGGTDSDTFSFAIDLPPVIPTEQKIEFCISYHANGQVFWANNAGQNYRIVHVQWKPDGVQTQMAPQDCAFHQTSPKTELESTIFGSPRLASGLFPEWQSWGRMENLASYR [D247A;D250A], the “effect of a mutation on the interaction” value is “disrupting interaction”.

Variants of B2 are the subject of a further assay. To be noted: with ppr3c_human PPP1R3C.
Turning to MRFRFGVVVPPAVAGARPELLVVGSRPELGRWEPRGAVRLRPAGTAAGDGALALQEPGLWLGEVELAAEEAAQDGAEPGRVDTFWYKFLKREPGGELSWEGNGPHHDRCCTYNENNLVDGVYCLPIGHWIEATGHTNEMKHTTDFYFNIAGHQAMHYSRILPNIWLGSCPRQVEHVTIKLKHELGITAVMNFQIEWDIVQNSSGCNRYPEPMTPDTMIKLYREEGLAYIWMPTPDMSTEGRVQMLPQAVCLLHALLEKGHIVYVHCNAGVGRSTAAVCGWLQYVMGWNLRKVQYFLMAKRPAVYIDEEALARAQEDFFQKFGKVRSSVCSL [T194I], the “effect of a mutation on the interaction” value is on record as “disrupting interaction”.

MRFRFGVVVPPAVAGARPELLVVGSRPELGRWEPRGAVRLRPAGTAAGDGALALQEPGLWLGEVELAAEEAAQDGAEPGRVDTFWYKFLKREPGGELSWEGNGPHHDRCCTYNENNLVDGVYCLPIGHWIEATGHTNEMKHTTDFYFNIAGHQAMHYSRILPNIWLGSCPRQVEHVTIKLKHELGITAVMNFQTEWDIVQNSSGCNRYPEPMTPDTMIKLYREEGLAYIWMPTPDMSTESRVQMLPQAVCLLHALLEKGHIVYVHCNAGVGRSTAAVCGWLQYVMGWNLRKVQYFLMAKRPAVYIDEEALARAQEDFFQKFGKVRSSVCSL [G240S]: the “effect of a mutation on the interaction” value was “decreasing interaction”.

Regarding MRFRFGVVVPPAVAGARPELLVVGSRPELGRWEPRGAVRLRPAGTAAGDGALALQEPGLWLGEVELAAEEAAQDGAEPGRVDTFWYKFLKREPGGELSWEGNGPHHDRCCTYNENNLVDGVYCLPIGHWIEATGHTNEMKHTTDFYFNIAGHQAMHYSRILPNIWLGSCPRQVEHVTIKLKHELGITAVMNFQTEWDIVQNSSGCNRYPEPMTPDTMIKLYREEGLAYIWMPTPDMSTEGRVQMLPQAVCLLHALLEKGHIVYVHCNAGVGRSTAAVCSWLQYVMGWNLRKVQYFLMAKRPAVYIDEEALARAQEDFFQKFGKVRSSVCSL [G279S], the “effect of a mutation on the interaction” value is reported as “decreasing interaction”.

For MRFRFGVVVPPAVAGARPELLVVGSRPELGRWEPRGAVRLRPAGTAAGDGALALQEPGLWLGEVELAAEEAAQDGAEPGRVDTFWYKFLKREPGGELSWEGNGPHHDRCCTYNENNLVDGVYCLPIGHWIEATGHTNEMKHTTDFYFNIAGHQAMHYSRILPNIWLGSCPRQVEHVTIKLKHELGITAVMNFQTEWDIVQNSSGCNRYPEPMTPDTMIKLYREEGLAYIWMPTPDMSTEGRVQMLPQAVCLLHALLEKGHIVYVHSNAGVGRSTAAVCGWLQYVMGWNLRKVQYFLMAKRPAVYIDEEALARAQEDFFQKFGKVRSSVCSL [C266S], the “effect of a mutation on the interaction” value was “increasing interaction”.

For the variant MRFRFGVVVPPAVAGARPELLVVGSRPELGRWEPRGAVRLRPAGTAAGDGALALQEPGLWLGEVELAAEEAAQDGAEPGRVDTFWYKFLKREPGGELSWEGNGPHHDRCCTYNENNLVDGVYCLPIGHWIEATGHTNEMKHTTDFYFNIAGHQAMHYSRILPNIWLGSCPRQVEHVTIKLKHELGITAVMNFQTEWDIVQNSSGCNRYPEPMTPDTMIKLYREEGLAYIWMPTPDMSTEGRVQMLPQAVCLLHALLEKGHIVYVHCNAGVGRSTAAVCGWLQYVMGWNLRKVQNFLMAKRPAVYIDEEALARAQEDFFQKFGKVRSSVCSL [Y294N], the “effect of a mutation on the interaction” value is recorded as “disrupting interaction”.

Consider MRFRFGVVVPPAVAGARPELLVVGSRPELGRWEPRGAVRLRPAGTAAGDGALALQEPGLWLGEVELAAEEAAQDGAEPGRVDTFWYKFLKREPGGELSWEGNGPHHDRCCTYNENNLVDGVYCLPIGHWIEATGHTNEMKHTTDFYFNIAGHQAMHYSRILPNIWLGSCPRQVEHVTIKLKHELGITAVMNFQTEWDIVQNSSGCNRYPEPMTPDTMIKLYREEGLAYIWMPTPDMSTEGRVQMLPQAVCLLHALLEKGHIVYVHCNAGVGRSTAAVCGWLQYVMGWNLRKVLYFLMAKRPAVYIDEEALARAQEDFFQKFGKVRSSVCSL [Q293L], for which the “effect of a mutation on the interaction” value is recorded as “disrupting interaction”.

Turning to MRFRFGVVVPPAVAGARPELLVVGSRPELGRWEPRGAVRLRPAGTAAGDGALALQEPGLWLGEVELAAEEAAQDGAEPGRVDTFWYKFLKREPGGELSWEGNGPHHDCCCTYNENNLVDGVYCLPIGHWIEATGHTNEMKHTTDFYFNIAGHQAMHYSRILPNIWLGSCPRQVEHVTIKLKHELGITAVMNFQTEWDIVQNSSGCNRYPEPMTPDTMIKLYREEGLAYIWMPTPDMSTEGRVQMLPQAVCLLHALLEKGHIVYVHCNAGVGRSTAAVCGWLQYVMGWNLRKVQYFLMAKRPAVYIDEEALARAQEDFFQKFGKVRSSVCSL [R108C], the “effect of a mutation on the interaction” value is recorded as “disrupting interaction”.

Turning to MRFRFGVVVPPAVAGARPELLVVGSRPELGRGEPRGAVRLRPAGTAAGDGALALQEPGLWLGEVELAAEEAAQDGAEPGRVDTFWYKFLKREPGGELSWEGNGPHHDRCCTYNENNLVDGVYCLPIGHWIEATGHTNEMKHTTDFYFNIAGHQAMHYSRILPNIWLGSCPRQVEHVTIKLKHELGITAVMNFQTEWDIVQNSSGCNRYPEPMTPDTMIKLYREEGLAYIWMPTPDMSTEGRVQMLPQAVCLLHALLEKGHIVYVHCNAGVGRSTAAVCGWLQYVMGWNLRKVQYFLMAKRPAVYIDEEALARAQEDFFQKFGKVRSSVCSL [W32G], the “effect of a mutation on the interaction” value is listed as “disrupting interaction”.

In the case of MRFRFGVVVPPAVAGARPELLVVGSRPELGRWEPRGAVRLRPAGTAAGDGALALQEPGLWLGEVELAAEEAAQDGAEPGRVDTLWYKFLKREPGGELSWEGNGPHHDRCCTYNENNLVDGVYCLPIGHWIEATGHTNEMKHTTDFYFNIAGHQAMHYSRILPNIWLGSCPRQVEHVTIKLKHELGITAVMNFQTEWDIVQNSSGCNRYPEPMTPDTMIKLYREEGLAYIWMPTPDMSTEGRVQMLPQAVCLLHALLEKGHIVYVHCNAGVGRSTAAVCGWLQYVMGWNLRKVQYFLMAKRPAVYIDEEALARAQEDFFQKFGKVRSSVCSL [F84L], the “effect of a mutation on the interaction” value was “disrupting interaction”.

With MRFRFGVVVPPAVAGARPELLVVGSRPELGRWEPRGAVRLRPAGTAAGDGALALQEPGLWLGEVELAAEEAAQDGAEPGRVDTFWYKFLKREPGGELSWEGNGPHHDRCCTYNENNLVDGVYCLPIGHWIEATGHTNEMKHTTDFYFNIAGHQAMHYSRILPNIWLGSCPRQVEHVTIKLKHELGITAVMNFQTEWDIVQNSSGCNRYPEPMTPDTMIKLYREEGLAYIWMPTPDMSTEGRVQMLPQAVCLLHALLEKGHIVYVHCNAGVGRSTAAVCGWLQYVMGWNLRKVQYFLMAKRLAVYIDEEALARAQEDFFQKFGKVRSSVCSL [P301L], the “effect of a mutation on the interaction” value was “disrupting interaction”.
